Measurements reported in article PMC10617769, “Dietary potassium stimulates Ppp1Ca-Ppp1r1a dephosphorylation of kidney NaCl cotransporter and reduces blood pressure” (The Journal of Clinical Investigation, 2023).

Molecular target: T1, recombinant α catalytic subunit of rabbit protein phosphatase 1 (Ppp1ca) (rabbit, UniProt P62139 1-330)
T1 construct: α catalytic subunit of protein phosphatase 1 (Ppp1ca), rabbit, recombinant; also called PP1A; Protein Phosphatase 1 Catalytic Subunit, α-isoform; source: bought: MilliporeSigma, P7937 (recombinant)
T1 sequence (P62139 whole entry, canonical isoform): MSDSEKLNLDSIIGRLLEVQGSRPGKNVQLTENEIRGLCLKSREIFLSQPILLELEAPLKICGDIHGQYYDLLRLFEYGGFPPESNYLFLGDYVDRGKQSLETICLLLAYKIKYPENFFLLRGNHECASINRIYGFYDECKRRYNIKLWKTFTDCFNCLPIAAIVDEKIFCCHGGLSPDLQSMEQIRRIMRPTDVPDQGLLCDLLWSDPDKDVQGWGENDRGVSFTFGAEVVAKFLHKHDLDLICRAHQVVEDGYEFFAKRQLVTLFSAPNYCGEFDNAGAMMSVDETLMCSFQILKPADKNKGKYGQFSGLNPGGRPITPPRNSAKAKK
Experiment: pull-down; GST-(N) NCC or GST alone on glutathione-agarose beads with 2–10 μg recombinant phosphatase; 12- to 18-hour incubation in PBS with 0.5 mM TCEP at 4°C; bound protein detected by Western blotting
Conditions: both partners purified

B1: GST fusion protein of the cytoplasmic amino terminus of rat NCC (amino acids 1-133) (domain or fragment, UniProt P55018 1-133, looked up)
chain: MAELPVTEMPGDALCSGRFTISTLLGGDEPPPAACDNSQPSHLTHGSTLYLRTFGYNTIDVVPAYEHYANSALPGEPRKVRPTLADLHSFLKQEGSHLHALAFDGRPGHELTDGLVEDETGANSEKSPGEPVR
notes: thiazide-sensitive sodium chloride cotransporter NCC (SLC12A3), rat, NP_062218, cytoplasmic amino terminus, amino acids 1-133; cloned into pGEX4T1; also called GST-NCC-(N); GST-(N) NCC; source: E. coli C43 (DE3), recovered by glutathione chromatography, kept on beads
  binding result: binds
